Stoichiometry N data for 1 substance are collected here from paper PMC4031500.

In this assay the target is chB6 (Bu-1), chicken B-lymphocyte allotypic marker (chicken (endogenous in DT40)). Kind of assay: non-reducing against reducing SDS-PAGE with Western blot; chB6 immunoprecipitated from DT40 lysate, SDS-PAGE without reducing agent, blot with anti-chB6 peptide antibody; compared with membrane fractions run with 2-mercaptoethanol. (Immunoblotting shows a protein as a band on a membrane.)

What is called stoichiometry N is a count of units in the complex or per binding partner. As for “chB6 (Bu-1), chicken B-lymphocyte allotypic marker (natural protein)”, the stoichiometry N amounted to 2.
